Measurements as given in PMC5114784, “Identification and characterization of two new 5-keto-4-deoxy-D-Glucarate Dehydratases/Decarboxylases” (BMC Biotechnology, 2016).

What was measured:
purified protein [1] = substrate: O=C(O)C(=O)C[C@H](O)[C@@H](O)C(=O)O; test: purified protein; format: biochemical, Acinetobacter baylyi; settings: 2.5 mM KPi pH 7.0, 2 mM MgCl2, 25 μg/ml BTB, 37 °C
purified protein [2] = substrate: O=C(O)C(=O)C[C@H](O)[C@@H](O)C(=O)O; test: purified protein; format: biochemical, Polaromonas naphthalenivorans; settings: 2.5 mM KPi pH 7.0, 2 mM MgCl2, 25 μg/ml BTB, 37 °C

| Protein | Km (purified protein [1]) [mM] | Vmax (purified protein [1]) [µmol/min/mg] | kcat (purified protein [1]) [s⁻¹] | kcat/Km (purified protein [1]) [M⁻¹ s⁻¹] | Km (purified protein [2]) [mM] | Vmax (purified protein [2]) [µmol/min/mg] | kcat (purified protein [2]) [s⁻¹] | kcat/Km (purified protein [2]) [M⁻¹ s⁻¹] |
| --- | --- | --- | --- | --- | --- | --- | --- | --- |
| KdgDAb (Acinetobacter baylyi ADP1) (protein, full-length, N-terminal His-tag (NH), codon-optimized gene, E. coli BL21(DE3), IMAC purified) MDALELKNIVSDGLLSFPVTDFDQNGDFNAASYAKRLEWLAPYGASALFAAGGTGEFFSLTGDEYSDVIKTAVDACKGSVPIIAGAGGPTRQAILQAQEAERLGAHGILLMPHYLTEASQEGLVEHVKQVCNAVNFGVIFYNRSVSKLNVDSLQQLVESCPNLIGFKDSSGQIDMMTEVVQTLGDRLSYLGGLPTAEIFAAPYKALGSPVYSSAVFNFIPKTAMEFYNALRNDDFATTQRLIRDFFLPLIKIRNRKSGYAVSMVKAGAKIVGHDAGPVRPPLSDLTPQDYEDLAALIATLGPQ | 1.0 ± 0.1 | 8 | 4.5 ± 0.02 | 4500 | – | – | – | – |
| KdgDPn (Polaromonas naphthalenivorans CJ2) (protein, full-length, C-terminal His-tag (CH), codon-optimized gene, E. coli ArcticExpress(DE3), IMAC purified) MNPQDLKTIVSSGLLSFPVTDFDEQGDFRPKTYIERLEWLAPYGATALFAAGGTGEFFSLTGDEYPLIIKTAVNTCAGKVPIIAGVGGPTRFAIACAQEAERLGAHGILLLPHYLMEAGQEGLIAHVEAVCKSVKFGVIVYNRNVCKLTPESLAILADRCPNLIGFKDGVGNIETMSSIFMKMGDRFSYLGGLPTAEVYAAAYKALGTPVYSSAVFNFIPKTAMDFYHAVASDDLATQHRLLRDFFMPYLALRNKNPGYAVSIVKAGATIVGHDAGPVRPPLTDLKPAEMEELAVLIKSLGPQ | – | – | – | – | 1.1 ± 0.1 | 3 | 1.7 ± 0.01 | 1500 |
